# Results as given in US20230293578A1, “TREATMENT OF BACTERIAL VAGINOSIS” (priority 2020, published 2023).
# B1: bovine lactoferrin (protein, UniProt P24627 20-708, looked up)
# Lactotransferrin: APRKNVRWCTISQPEWFKCRRWQWRMKKLGAPSITCVRRAFALECIRAIAEKKADAVTLDGGMVFEAGRDPYKLRPVAAEIYGTKESPQTHYYAVAVVKKGSNFQLDQLQGRKSCHTGLGRSAGWIIPMGILRPYLSWTESLEPLQGAVAKFFSASCVPCIDRQAYPNLCQLCKGEGENQCACSSREPYFGYSGAFKCLQDGAGDVAFVKETTVFENLPEKADRDQYELLCLNNSRAPVDAFKECHLAQVPSHAVVARSVDGKEDLIWKLLSKAQEKFGKNKSRSFQLFGSPPGQRDLLFKDSALGFLRIPSKVDSALYLGSRYLTTLKNLRETAEEVKARYTRVVWCAVGPEEQKKCQQWSQQSGQNVTCATASTTDDCIVLVLKGEADALNLDGGYIYTAGKCGLVPVLAENRKSSKHSSLDCVLRPTEGYLAVAVVKKANEGLTWNSLKDKKSCHTAVDRTAGWNIPMGLIVNQTGSCAFDEFFSQSCAPGADPKSRLCALCAGDDQGLDKCVPNSKEKYYGYTGAFRCLAEDVGDVAFVKNDTVWENTNGESTADWAKNLNREDFRLLCLDGTRKPVTEAQSCHLAVAPNHAVVSRSDRAAHVKQVLLHQQALFGKNGKNCPDKFCLFKSETKNLLFNDNTECLAKLGGRPTYEEYLGTEYVTAIANLKKCSTSPLLEACAFLTR
# notes: bulk bLF dissolved in water for in vitro tests
# Experiments:
# G. vag strain 14.2 = assay: antibiotic synergy testing, checkerboard cross dilution method in broth cultures; type: cell-based, Gardnerella vaginalis; settings: 4 mg/mL bLF, 24 hr
# [1] = in vivo
# From the text: Zinc levels in vaginal fluid of BV have also been measured. Recommended zinc levels for bacterial growth are not readily available as zinc toxicity is low and the capacity of bacteria to store zinc is high, thus contributing to a very wide range of acceptable zinc levels that will support bacterial growth. […] Furthermore, in an L. iners based microbiome that has not progressed to full blown BV, a significant increase in calprotectin is also seen. Thus, when an altered microbiome takes hold, the body appears to be an active conspirator in discouraging L. Crispatus-type re-growth.
# The remainder is expelled. This means that free iron is released from a dose of bovine lactoferrin that is partially saturated with iron and may become accessible to bacteria. Even if the released iron is immediately bound by the remaining lactoferrin, this proteolysis will inevitably increase the overall saturation percentage of the remaining bovine lactoferrin. In turn, it will also increase the saturation of human lactoferrin, since bovine and human forms exist in relative equilibrium considering that their bindings constants are similar. It also follows, that lowering the initial iron saturation of bovine lactoferrin will lower human lactoferrin's iron saturation levels and thus provide the least access to the bacterial binding proteins that scavenge iron from human lactoferrin. […]
# Gardnerella vaginalis = assay: G. vaginalis growth in liquid culture, viability as CFU
# Experimental: G. vag isolates were recovered from the vaginal discharge of BV positive patients and identification at the species level was performed by species-specific PCR using the primer pairs G. vaginalis V2-R1 and G. vaginalis V6-U2.
# Cells were grown in aerobic conditions at 37° C. at 5% CO2 in PMD medium. PMD medium contains: proteose peptone No. 3 (BD211693) 15 g/L, maltone 2 g/L, dextrose 1 g/L, Na2HPO2 1 g/L, NaH2PO4 1 g/L adjusted to pH6.8. High Iron PMD medium additional contains 500 mg/L human hemoglobin. No Iron PMD is prepare by treating PMD medium with Chelex® 100 Chelating Resin (Bio-Rad Cat #1432832) then adding back 0.1 mM magnesium sulfate, 0.1 mM calcium chloride, and 10 μM zinc chloride. Low Iron PMD medium is prepared by adding 10 μM ferric ammonium citrate (FAC) to No Iron PMD. Overnight broth cultures of G. vaginalis were grown in High Iron PMD, centrifuged, resuspended No Iron PMD, incubated for 2 hr at 37° C. then diluted to 2.5×10^7 cells/mL in Low Iron PMD. Cells were grown in liquid culture for 24-48 hr then plated on agar to assess viability (expressed as colony forming units per mL (CFU)). Bulk bLF was dissolved in water and diluted in culture medium.
molecule,measurement,setting,value
B1,growth inhibited,G. vag strain 14.2,19.3%
same,share of a vaginal dose broken down via vaginal or bacterial proteases,[1],≤ 20%
same,concentration range of dose-dependent inhibition of G. vag growth,"Gardnerella vaginalis; G. vag isolate 14.2, Low Iron PMD, FIG. 2",0.5 to 32 mg/mL
same,effect on G. vaginalis growth,Gardnerella vaginalis; iron-containing bovine lactoferrin preparation,growth suppression
